Data on 16 molecules can be found in patent publication US20130123350, “NUCLEIC ACID MOLECULE CAPABLE OF BINDING TO c-MET AND USE THEREOF” (KANAGAWA PREFECTURAL HOSPITAL ORGANIZATION, published 2013).

The labels stand for the following.
B1: g1 2'-F (ssRNA)
RNA: GGGACGCUCACGUACGCUAAACACACUGAGAGUUUGACCAGCUAUUAAAUGGGUCGUGACUCAGUGCCUGGACGUGCAGU
modifications: 2'-F on all C and U
B2: g15 2'-F (ssRNA)
RNA: GGGACGCUCACGUACGCUAAGACGCGGGCCACCGGCUAGCGACGGGUGGUAAAGGGCUUGUCAGUGCCUGGACGUGCAGU
modifications: 2'-F on all C and U
B3: g13 2'-F (ssRNA)
RNA: GGGACGCUCACGUACGCUAAUCACUCGGACAGCCGGAGCGAAACGGGCUGUGUAAGACUGUCAGUGCCUGGACGUGCAGU
modifications: 2'-F on all C and U
B4: g4 2'-F (ssRNA)
RNA: GGGACGCUCACGUACGCUAAUACCGUGAUUCGGGGUGGUAUCCGGUGGACAUCCAGGUCGUCAGUGCCUGGACGUGCAGU
modifications: 2'-F on all C and U
B5: g10 2'-F (ssRNA)
RNA: GGGACGCUCACGUACGCUAAACACAGCUCUGAUGGUCGUGAUUAGGUUGACCACCUACCUUCAGUGCCUGGACGUGCAGU
modifications: 2'-F on all C and U
B6: g2 2'-F (ssRNA)
RNA: GGGACGCUCACGUACGCUAAACCCUGGCGAUCUCCGGCCGGAUACGGGAGAACGAGGUACUCAGUGCCUGGACGUGCAGU
modifications: 2'-F on all C and U
B7: g5 2'-F (ssRNA)
RNA: GGGACGCUCACGUACGCUAAGCCCAACGAACAUUUUGAGUUUCCAGGCAGCUCAUAGACAUCAGUGCCUGGACGUGCAGU
modifications: 2'-F on all C and U
B8: g11 2'-F (ssRNA)
RNA: GGGACGCUCACGUACGCUAAGUUUAGGUGGCAUCGACCUUCAUGAAACGGGUGCACAGGCUCAGUGCCUGGACGUGCAGU
modifications: 2'-F on all C and U
B9: g16 2'-F (ssRNA)
RNA: GGGACGCUCACGUACGCUAACCGCUACCGGGUGCAACGGGUAGACUGUAACCAGGUGAUAUCAGUGCCUGGACGUGCAGU
modifications: 2'-F on all C and U
B10: g7 2'-F (ssRNA)
RNA: GGGACGCUCACGUACGCUAACUUGAAGUCAAGGGUAGAGUGACCAUGCAGCUCGUAGACAUCAGUGCCUGGACGUGCAGU
modifications: 2'-F on all C and U
B11: g9 2'-F (ssRNA)
RNA: GGGACGCUCACGUACGCUAAGAUGUCUCAAUUGGUCGUGAUUGUGCUGACCACACGAACCUCAGUGCCUGGACGUGCAGU
modifications: 2'-F on all C and U
B12: g12 2'-F (ssRNA)
RNA: GGGACGCUCACGUACGCUAACGCGGCCAUCCGGCGUUUGGAACGGGAUGUACACCUGACAUCAGUGCCUGGACGUGCAGU
modifications: 2'-F on all C and U
B13: g3 2'-F (ssRNA)
RNA: GGGACGCUCACGUACGCUAAGGGCGAAACUGUCGUGACACGGUUUGACAUGCCGGCCUUAUCAGUGCCUGGACGUGCAGU
modifications: 2'-F on all C and U
B14: g8 2'-F (ssRNA)
RNA: GGGACGCUCACGUACGCUAAGGGCACUUAAAACCAGACCGUGAUUUGCGGUUGGUCUCGCUCAGUGCCUGGACGUGCAGU
modifications: 2'-F on all C and U
B15: g14 2'-F (ssRNA)
RNA: GGGACGCUCACGUACGCUAAUCAUCGGGACAUCGGAUGGAACGGGUGUCAAGAAGCGUGUUCAGUGCCUGGACGUGCAGU
modifications: 2'-F on all C and U
B16: g6 2'-F (ssRNA)
RNA: GGGACGCUCACGUACGCUAAUCCAGGUGUGGCGAGCCACUGUAAGAGUCGCCGUGAGGAUUCAGUGCCUGGACGUGCAGU
modifications: 2'-F on all C and U

Sequence of rec-cMet (Recombinant Human HGF R/c-MET/Fc Chimera) (P08581 25-307, stated change not applied, chain 1 of 2): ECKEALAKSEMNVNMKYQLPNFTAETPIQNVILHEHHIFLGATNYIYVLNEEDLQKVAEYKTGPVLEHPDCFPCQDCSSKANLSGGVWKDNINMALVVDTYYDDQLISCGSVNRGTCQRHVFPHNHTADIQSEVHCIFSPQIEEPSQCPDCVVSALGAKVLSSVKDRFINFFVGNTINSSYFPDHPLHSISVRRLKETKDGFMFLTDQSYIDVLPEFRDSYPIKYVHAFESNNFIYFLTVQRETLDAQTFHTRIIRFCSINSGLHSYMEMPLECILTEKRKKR
Sequence of rec-cMet (Recombinant Human HGF R/c-MET/Fc Chimera) (P08581 308-932, stated change not applied, chain 2 of 2): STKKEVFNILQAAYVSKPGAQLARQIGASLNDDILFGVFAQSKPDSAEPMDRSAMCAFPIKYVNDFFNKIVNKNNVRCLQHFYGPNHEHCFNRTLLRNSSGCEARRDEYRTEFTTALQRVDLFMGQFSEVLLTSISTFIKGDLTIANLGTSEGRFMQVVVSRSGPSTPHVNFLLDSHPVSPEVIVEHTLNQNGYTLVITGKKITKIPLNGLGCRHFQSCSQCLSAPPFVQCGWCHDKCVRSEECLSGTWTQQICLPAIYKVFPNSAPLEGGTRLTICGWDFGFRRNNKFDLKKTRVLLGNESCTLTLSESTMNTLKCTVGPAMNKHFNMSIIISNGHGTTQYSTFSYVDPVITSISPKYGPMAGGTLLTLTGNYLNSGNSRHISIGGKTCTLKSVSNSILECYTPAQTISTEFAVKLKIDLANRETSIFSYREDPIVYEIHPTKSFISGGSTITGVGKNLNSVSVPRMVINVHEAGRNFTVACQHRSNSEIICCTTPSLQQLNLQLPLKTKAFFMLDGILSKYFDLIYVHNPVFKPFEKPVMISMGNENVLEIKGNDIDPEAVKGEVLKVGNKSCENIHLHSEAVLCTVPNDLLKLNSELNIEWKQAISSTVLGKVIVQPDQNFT

This data set concerns the target rec-cMet (Recombinant Human HGF R/c-MET/Fc Chimera) (Homo sapiens, UniProt P08581;P08581 SEQ:1-283,SEQ:1-625). Description: SPR; rec-cMet 60 nM. Conditions: tags: C-terminal HIEGRMD linker, human IgG Fc (100-330), 6xHis; R&D Systems; chain copies: 2 (inferred, Fc chimera). The method, then:
Using these truncated RNA aptamers, the binding ability thereof to the rec-cMet was examined. The binding ability was analyzed using BIACORE (registered trademark) X (GE Healthcare) in accordance with its instructions for use, with the concentration of the rec-cMet being set to 175 nmol/L. Also, the binding ability of each of the RNA aptamers g1 and g1-trA was examined in the same manner. As a comparative example, the 40N was used, and the binding ability thereof was examined in the same manner.
The binding ability of each of the RNA aptamers to the rec-cMet was examined in the same manner as in Example 5, except that the fluorinated RNA aptamers were used. The concentration of the rec-cMet was set to 60 nmol/L. With the time point at which the introduction of the rec-cMet to the chip was started being 0 seconds, introduction of a buffer was started 60 seconds later. As a comparative example, the same negative control as in Example 6 was used.
Turning to B1, the binding result is “binds”. In the case of B2, the binding result is reported as “binds”. In the case of B3 it was “binds”; in that of B4, “binds”. In the case of B5 it was “binds”; in that of B6, “binds”; in that of B7, “binds”. In the case of B8 it was “binds”; in that of B9, “binds”. Turning to B10, the binding result was “binds”. In the case of B11 it was “binds”; in that of B12, “binds”. The value for B13 was “binds”. The value for B14 was “binds”; that for B15 was “binds”; that for B16 was “binds”.
